Measured values from patent US6531286, “Homogeneous detection of a target through nucleic acid ligand-ligand beacon interaction” (Gilead Sciences, Inc.).

Assays:
[1] = target: T1, PDGF-AB (platelet-derived growth factor AB dimer) (Homo sapiens, UniProt P04085;P01127 P04085:87-211,P01127:82-190); experiment: competition; ligand beacon (SEQ:2) fluorescence decreases with protein; 160 nM aptamer, PBSM buffer 1 mM MgCl2, 4 uM tRNA, pH 7.4, 37C; also detected in plasma; FIG. 3A lists aptamer as SEQ:10; conditions: tags: R & D Systems; chain copies: heterodimer A+B (stated); predicted 3-way junction
Method: Example 5 Protein Detection Using Ligand Beacon Assays PDGF AB-Dimer The PDGF ligand beacon was used in an assay in which 160 nM PDGF nucleic acid ligand (SEQ ID NO:1) was mixed with an increasing concentration of PDGF AB-dimer in PBSM buffer [10.1 mM Na_2HPO_4, 1.8 mM KH_2PO_4, 137 mM NaCl, 2.7 mM KCl, 1 mM MgCl_2, 4 μM tRNA (pH 7.4)] for 10 minutes at 37° C. Then, ligand beacon (SEQ ID NO:2) was added to a final concentration of 160 nM and the mixture was incubated for 10 minutes at 37° C. A measurement of fluorescein emission at 530 nm was made for each concentration of PDGF using 488 nm monochromatic laser light for excitation in a 96 well format Vistra Fluorimager SI. The average value of fluorescence signals derived from duplicates was plotted against the corresponding log concentration of the concentration PDGF AB-dimer in nanomoles.

Taq DNA polymerase = Taq DNA polymerase (Thermus aquaticus, UniProt P19821 P19821:1-832); experiment: competition; ligand beacon (SEQ:4) fluorescence decreases with protein; PBSM buffer, 4 uM tRNA, 37C; FIG. 3A lists aptamer as SEQ:9; conditions: tags: Roche Molecular Systems; predicted stem-loop
Method: (§1) Open circles represent the fluorescence signal obtained when the 100 nM PDGF aptamer was first incubated with 100 nM PDGF ligand beacon before the protein was added. Closed circles indicate the signal generated when 100 nM PDGF ligand beacon was mixed with increasing concentration of the PDGF AB-dimer in the absence of the aptamer. TAQ DNA Polymerase An assay using constant concentrations of TAQ nucleic acid ligand and TAQ ligand beacon, and varying concentrations of TAQ DNA polymerase, was carried out as described above. Again, the fluorescence emission decreased with increasing amounts of the ligand Taq Polymerase. Human L-Selectin A fixed concentration of L-selectin aptamer was mixed with increasing concentration of human L-selectin in SHMCK buffer [20 mM HEPES, 120 mM NaCl, 5 mM KCl, 1 mM MgCl_2, 1 mM CaCl_2, 4 µM tRNA, (pH 7.4)] and incubated for 10 minutes at 37° C. Then, L-selectin ligand beacon was added to a final concentration equivalent to that of the aptamer, incubated additional 10 minutes at 37° C. and fluorescence was measured. The results are depicted in FIGS. 7A and B. It can be seen that the dynamic range of the assay can be easily varied by changing the concentration of the nucleic acid ligand/ligand beacon pair. […] The fluorescence signal was then measured as described above. […]

[2] = target: T1, PDGF-AB (platelet-derived growth factor …); experiment: competition; specificity control, no concentration-dependent signal reduction; 100 nM aptamer, PBSM, 4 uM tRNA, 37C; conditions: tags: R & D Systems; chain copies: heterodimer A+B (stated); predicted stem-loop
Method: In the example shown in FIG. 4C, TAQ-nucleic acid ligand (100 nM) was mixed with increasing concentrations of PDGF in PBSM buffer containing 4 μM tRNA at 37° C. for 10 minutes. Then 110 nM TAQ-ligand beacon was added, incubated for an additional 10 minutes at the same temperature and fluorescence was measured.

P-selectin [3] = target: T2, P-selectin (Homo sapiens, UniProt P16109 P16109:42-771); experiment: competition; specificity control, little or no fluorescence change; 200 nM aptamer, SHMCK, 4 uM tRNA, 37C; conditions: tags: R & D Systems
Method: (§2) Specifically, L-Selectin nucleic acid ligand (200 nM) was mixed with increasing concentrations of P-Selectin in SHMCK buffer containing 4 µM tRNA. The mixture was incubated at 37° C. for 15 minutes. Then 220 nM L-Selectin ligand beacon was added and the mixture was incubated an additional 10 minutes at the same temperature and fluorescence was measured (FIG. 8C; (•)). P-Selectin nucleic acid ligand (200 nM) was mixed with increasing concentrations of L-Selectin in SHMCK buffer containing 4 µM tRNA at 37° C. for 15 minutes. Then 220 nM P-Selectin ligand beacon was added, incubated for an additional 10 minutes at the same temperature and fluorescence was measured (FIG. 8C; (○)).

L-selectin [4] = target: T3, L-selectin (Homo sapiens, UniProt P14151 P14151:39-332); experiment: competition; ligand beacon (SEQ:6); 200 or 800 nM aptamer, SHMCK buffer 1 mM MgCl2 1 mM CaCl2, 4 uM tRNA, pH 7.4, 37C; also detected in plasma; conditions: tags: R & D Systems
T3 sequence: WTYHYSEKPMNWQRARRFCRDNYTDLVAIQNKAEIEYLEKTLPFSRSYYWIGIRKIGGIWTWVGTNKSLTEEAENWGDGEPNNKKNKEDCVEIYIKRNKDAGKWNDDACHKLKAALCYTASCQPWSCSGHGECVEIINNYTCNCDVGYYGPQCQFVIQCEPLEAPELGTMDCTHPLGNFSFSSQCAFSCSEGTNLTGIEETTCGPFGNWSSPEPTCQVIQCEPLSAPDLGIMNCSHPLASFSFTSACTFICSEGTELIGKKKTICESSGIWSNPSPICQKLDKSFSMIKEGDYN
Method: as §1

P-selectin [5] = target: T2, P-selectin; experiment: competition; ligand beacon (SEQ:8); 200 nM aptamer, SHMCK buffer 1 mM MgCl2 1 mM CaCl2, 4 uM tRNA, pH 7.4, 37C; also detected in plasma; FIG. 3A lists aptamer as SEQ:12; conditions: tags: R & D Systems
Method: as §1, with “Human L-Selectin A fixed concentration of L-selectin aptamer was mixed with increasing concentration of human L-selectin in SHMCK buffer [20 mM HEPES, 120 mM NaCl, 5 mM KCl, 1 mM MgCl_2, 1 mM CaCl_2, 4 µM tRNA, (pH 7.4)] and incubated for 10 minutes at 37° C.” left out, “measured.” for “measured. The results are depicted in FIGS. 7A and B. It can be seen that the dynamic range of the assay can be easily varied by changing the concentration of the nucleic acid ligand/ligand beacon pair.”
P-selectin aptamer (200 nM) was mixed with increasing concentration of human P-selectin in SHMCK buffer [20 mM HEPES, 120 mM NaCl, 5 mM KCl, 1 mM MgCl_2, 1 mM CaCl_2, 4µM tRNA, (pH 7.4)] and incubated for 10 minutes at 37° C. Then, P-selectin ligand beacon was added to a final concentration of 200 nM, incubated for additional 10 minutes at 37° C. and fluorescence was measured. […]

L-selectin [6] = target: T3, L-selectin; experiment: competition; specificity control, little or no fluorescence change; 200 nM aptamer, SHMCK, 4 uM tRNA, 37C; conditions: tags: R & D Systems
Method: as §2

T1 sequence (P01127 82-190, chain 2 of 2, other chains not shown): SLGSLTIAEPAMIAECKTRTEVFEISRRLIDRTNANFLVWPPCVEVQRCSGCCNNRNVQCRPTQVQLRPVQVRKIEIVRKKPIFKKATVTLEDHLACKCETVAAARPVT
T2 sequence (P16109 42-771, one chain of several): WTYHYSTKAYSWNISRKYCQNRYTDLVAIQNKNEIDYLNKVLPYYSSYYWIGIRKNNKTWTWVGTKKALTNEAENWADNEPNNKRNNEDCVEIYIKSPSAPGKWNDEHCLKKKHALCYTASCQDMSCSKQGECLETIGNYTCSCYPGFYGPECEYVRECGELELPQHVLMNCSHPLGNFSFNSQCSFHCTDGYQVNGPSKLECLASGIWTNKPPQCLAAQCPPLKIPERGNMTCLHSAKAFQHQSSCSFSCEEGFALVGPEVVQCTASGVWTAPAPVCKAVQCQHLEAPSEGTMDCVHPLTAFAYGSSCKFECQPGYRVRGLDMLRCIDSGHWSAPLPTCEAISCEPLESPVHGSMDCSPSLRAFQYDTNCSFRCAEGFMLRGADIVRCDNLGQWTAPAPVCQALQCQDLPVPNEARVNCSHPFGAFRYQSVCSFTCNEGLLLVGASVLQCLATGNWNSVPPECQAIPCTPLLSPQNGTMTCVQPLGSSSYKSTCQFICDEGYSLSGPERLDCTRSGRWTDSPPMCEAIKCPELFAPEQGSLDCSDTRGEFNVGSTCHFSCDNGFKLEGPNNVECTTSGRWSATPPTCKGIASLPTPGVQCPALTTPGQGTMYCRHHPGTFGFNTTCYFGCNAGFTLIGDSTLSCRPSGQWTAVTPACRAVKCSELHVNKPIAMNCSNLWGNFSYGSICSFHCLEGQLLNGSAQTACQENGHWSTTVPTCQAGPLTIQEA
Taq DNA polymerase, sequence (P19821 whole entry, one chain of several): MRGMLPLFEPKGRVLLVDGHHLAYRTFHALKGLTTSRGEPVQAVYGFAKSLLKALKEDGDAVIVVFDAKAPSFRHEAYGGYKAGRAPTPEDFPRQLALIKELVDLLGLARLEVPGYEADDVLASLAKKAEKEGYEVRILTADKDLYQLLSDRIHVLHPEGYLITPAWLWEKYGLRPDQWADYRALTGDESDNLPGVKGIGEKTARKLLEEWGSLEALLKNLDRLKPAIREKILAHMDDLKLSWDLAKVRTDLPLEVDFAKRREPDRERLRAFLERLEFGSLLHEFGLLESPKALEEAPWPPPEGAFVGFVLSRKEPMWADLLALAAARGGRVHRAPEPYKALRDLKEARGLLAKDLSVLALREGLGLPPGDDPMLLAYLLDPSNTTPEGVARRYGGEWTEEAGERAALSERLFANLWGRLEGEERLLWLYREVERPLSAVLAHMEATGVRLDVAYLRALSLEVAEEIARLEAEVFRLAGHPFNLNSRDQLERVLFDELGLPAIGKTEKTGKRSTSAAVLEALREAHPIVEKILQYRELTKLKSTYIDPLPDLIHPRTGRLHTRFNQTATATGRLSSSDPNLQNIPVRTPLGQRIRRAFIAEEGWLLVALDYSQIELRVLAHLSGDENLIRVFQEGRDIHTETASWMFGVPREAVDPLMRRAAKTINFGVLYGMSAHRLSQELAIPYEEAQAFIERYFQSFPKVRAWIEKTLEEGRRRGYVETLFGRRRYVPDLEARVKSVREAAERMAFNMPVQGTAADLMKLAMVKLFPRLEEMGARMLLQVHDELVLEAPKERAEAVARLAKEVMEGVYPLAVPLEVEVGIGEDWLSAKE

Does TGGGAGGGCGCGTTCTTCGTGGTTACTTTTAGTCCCGT (ssDNA) [PDGF aptamer] bind [1]?
Result: binds

B1: Taq aptamer (ssDNA)
DNA: TGGCGGAGCGATCATCTCAGAGCATTCTTAGCGTTTTGTTCTTGTGTATGA
Which results are given for B1?
binding result (Taq DNA polymerase): binds; binding result [2]: no binding

Does TAGCCAAGGTAACCAGTACAAGGTGCTAAACGTAATGGCTTCGGCTTAC (ssDNA) [L-selectin aptamer] bind (P-selectin [3])?
Result: no binding

Does TAGCCAAGGTAACCAGTACAAGGTGCTAAACGTAATGGCTTCGGCTTAC (ssDNA) [L-selectin aptamer] bind (L-selectin [4])?
Result: binds

Does CUCAACGAGCCAGGAACAUCGAGGUCAGCAAACGCGAG (ssRNA, 2'-F at all pyrimidines) [P-selectin aptamer] bind (P-selectin [5])?
Result: binds

Does CUCAACGAGCCAGGAACAUCGAGGUCAGCAAACGCGAG (ssRNA, 2'-F at all pyrimidines) [P-selectin aptamer] bind (L-selectin [6])?
Result: no binding
